Substitutions are numbered along the chain they refer to.
B1: PR005339 (antibody, human IgG1, V domains shown)
VH: EVQLVESGGGLVKPGGSLKLSCAASGFTFSDYYMSWIRQAPGKGVEWISYISNNGSTIHYADSVKGRFTISRDNAKNSLYLQMNSLRAEDTAVYYCARDFNNGWYEDFDYWGQGTLVTVSS
notes: HCAb (heavy chain-only, human IgG1 Fc), no light chain
B2: PR005342 (antibody, human IgG1, V domains shown)
VH: EVQLVESGGGLVKPGGSLRLSCAASGFNFSDYYMSWIRQAPGKGLEWISYISNSSSTIYYADSVKGRFTISRDNAKNSLYLQMSRLRAEDTAMYYCARDTTNGWYEDFDYWGQGTLVTVSS
notes: as for B1
B3: PR005343 (antibody, human IgG1, V domains shown)
VH: EVQLVESGGGLVKPGGSLRLSCVASGFTFSDYYMSWIRQAPGKGMEWISYISSSGSTKNYANSVKGRFTISRDNAKNSLYLQMNSLRAEDTAAYYCARVPPYNASWYEDFDYWGQGTLVTVSS
notes: as for B1
B4: PR005347 (antibody, human IgG1, V domains shown)
VH: B3 VH with A24T, S53T, S54T, N77S, Y102S
notes: as for B1
B5: PR005337 (antibody, human IgG1, V domains shown)
VH: EVQLVESGGGLVKPGGSLRLSCAASGFIFSDYYMSWIRQAPGKGLEWVSYISSSGSTIHYADSVKGRFTVSRDNAKNSLYLQMNSLRTEDTAVYYCARDPPTSNSDWVSLHFDHWGQGTLVTVSS
notes: as for B1
B6: PR005341 (antibody, human IgG1, V domains shown)
VH: EVQLVESGGGLVKPGGSLRLSCVASGFTFSDYYMSWIRQAPGKGLEWISYISSSGSSIYYAESVKGRFTISRDNAKNSLYLQMNRLRAEDTALYYCARTPPSSDNWYEDFDYWGQGALVTVSS
notes: as for B1
B7: PR303155 (antibody, human IgG1, V domains shown)
VH: B1 VH with K19R, F29L, V45L, N53S, H59Y, K76R, V93L, F100V, N101S, N102S
notes: as for B1
B8: PR303199 (antibody, human IgG1, V domains shown)
VH: EVQLVESGGGLVKPGGSLRLSCAASGFTFSDYYMSWIRQAPGKGLEWIAYISSSGSTIYYADSVKGRFTISRDNAKNSLYLQMNSLRAEDTAIYYCAREYYGSENYDHFDYWGQGTLVTVSS
notes: as for B1
B9: PR303145 (antibody, human IgG1, V domains shown)
VH: QVQLVESGGGLVKPGGSLRISCAASGFTFSNYNMSWIRQAPGKGVEWVSHISGSGRTIYYAESVKGRFTISRDNAKNSLYLQMNSLRAEDTAMYYCARDLSSGWYEDFDYWGQGTLVTVSS
notes: as for B1
B10: PR005345 (antibody, human IgG1, V domains shown)
VH: EVQLVESGGGLVKPGGSLRLSCAASGFTFSDYYMSWIRQAPGKGLEWIAYISSSGSTIHYSDSVKGRFTISRDNAKNSLYLQMNSLRAEDTAVYYCARDTPSSSSDWVSLQFDYWGQGTPVTVSS
notes: as for B1
B11: PR005348 (antibody, human IgG1, V domains shown)
VH: B5 VH with I28T, A40T, S53R, I58K, H59Y, V70I, T88A, P100A, T102S
notes: as for B1
B12: PR005346 (antibody, human IgG1, V domains shown)
VH: EVQLVESGGGLVKPGGSLRLSCAASGFTLSDYYMSWIRQAPGKGLEWVSNISKNGFTIYYAESVKGRFTVSRDNAKNSLYLQMNSLRAEDTAIYYCARDSSGWYSEFDYWGQGTLVTVSS
notes: as for B1
B13: PR005350 (antibody, human IgG1, V domains shown)
VH: EVQLVESGGGLVKPGGSLRLSCAASGFTLSDSQMSWIRQAPGKGVEWVSYISSSGNTIYYGDSVKGRFTISRDNAKNSLFLQMNSLRAEDTAVYYCARVPPSSSNWYEDFDIWGQGTLVTVSS
notes: as for B1
B14: PR007421 (antibody, V domains shown)
VH: EVQLVESGGGLVKPGGSLRLSCAASGFTFSDFYMSWIRQAPGKGLEWISYIDSSGRPLAYADSVKGRFTISRDNAKNSLYLQMNSLRAEDTAIYYCARDMPSSSSDWVSLQFDYWGQGTLVTVSS
notes: bivalent form (HCAb) variant of PR005340, no light chain

Each binder was assayed against T1, cynomolgus ROR1 on CHO-K1-cynoROR1 cells (cynomolgus monkey, UniProt A0A2K5WTX7 30-937) (assay: flow cytometry on CHOK1-cynoROR1 cells, MFI (APC-A Median) [top panel]).
T1 construct: whole, on cells
Experimental: (§1) Binding of recombinant anti-ROR1 antibodies to human or cynomolgus ROR1-overexpressing cells was tested by flow cytometry. In this example, ROR1-expressing cell lines are HEK293T cell lines that had been transfected to express human ROR1 on the surface (HEK293T-hu ROR1, KYINNO BIOTECHNOLOGY CO., LTD, Catalog #KC-1018), CHO-K1 cell lines that had been transfected to express cynomolgus ROR1 (CHOK1-cyno ROR1), PANC-1 (ATCC, catalog: CRL-1469) or A549 cell lines (Shanghai Institute of Biochemistry and Cell Biology, Chinese Academy of Sciences).
(§2) In brief, anti-ROR1 antibodies were serially diluted in staining buffer (PBS containing 2% FBS). Antibody solution was incubated with 1×10⁵ cells at 4° C. for 1 hour. […] After 1-hour incubation at 4° C., cells were washed twice with staining buffer and subjected to flow cytometry. PR000374 (Bench marker 1) and non-relevant IgG isotype control (Crownbio) were used as positive and negative controls, respectively.
For B1, the “EC50 (read off the curve)” value was about 4 nM.
In the case of B2, the “EC50 (read off the curve)” value is reported as about 7 nM.
With B3 the “EC50 (read off the curve)” value was about 4 nM.
With B4 the “EC50 (read off the curve)” value was about 10 nM.
With B5 the “EC50 (read off the curve)” value was about 20 nM.
With B6 the “EC50 (read off the curve)” value was about 3 nM.

The binders below were run against T2, Human ROR1-ECD-his (Acro Biosystems RO1-H522y) (human, UniProt Q01973 30-406) (assay: BLI, ROR1-His on HIS1K sensor, antibody in solution).
T2 construct: extracellular domain; bought protein; also called hROR1-ECD-his; hu-ROR1-ECD-his
T2 sequence (Q01973 30-406): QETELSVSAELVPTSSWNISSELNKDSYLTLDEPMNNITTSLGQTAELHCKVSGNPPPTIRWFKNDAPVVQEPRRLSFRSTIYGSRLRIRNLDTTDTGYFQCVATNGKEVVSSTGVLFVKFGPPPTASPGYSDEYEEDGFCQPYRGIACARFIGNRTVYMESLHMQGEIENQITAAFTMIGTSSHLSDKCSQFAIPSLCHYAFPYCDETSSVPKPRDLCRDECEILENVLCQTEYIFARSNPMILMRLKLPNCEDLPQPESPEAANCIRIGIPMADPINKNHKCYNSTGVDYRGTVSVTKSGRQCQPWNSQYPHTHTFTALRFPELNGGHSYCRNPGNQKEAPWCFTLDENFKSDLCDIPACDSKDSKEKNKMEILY
Experimental: In the example, binding kinetics of anti-ROR1 antibodies to soluble ROR1 protein were analyzed by using Bio-Layer Interferometry (BLI) analysis on Fortebio Octet Red384 instrument (Fortebio).
In BLI analysis, recombinant anti-ROR1 antibodies was serially diluted with 10× kinetics buffer (Fortebio). Human ROR1-His proteins were diluted to 20 nM. Then the diluted antibodies, ROR1 proteins and regeneration buffer (10 mM glycine HCl pH 1.5) were added to 96-well plates (Greiner). Rate constants for association and dissociation were measured using HIS1K sensor (Fortebio). The sensor surface was regenerated after each binding experiment with regeneration buffer. The traces were processed using Octet Data Analysis Software (version 11.0, Pall ForteBio, CA, USA).
For B7, the Kd was 6.83 nM, the koff was 0.00336 s⁻¹ and the kon was 492000 M⁻¹ s⁻¹.
With B8 the Kd was 14.1 nM, the koff was 0.00173 s⁻¹ and the kon was 123000 M⁻¹ s⁻¹.
Work on B9 yielded a Kd of 11.1 nM, a koff of 0.0031 s⁻¹ and a kon of 278000 M⁻¹ s⁻¹.

Each binder was assayed against T3, human ROR1 on cells (HEK293T-hROR1, PANC-1, A549) (human, UniProt Q01973 30-937) (assay: flow cytometry, A549 cells).
T3 construct: whole, on cells; one molecule for the three cell lines; also called huROR1; cell surface ROR1
T3 sequence (Q01973 30-937): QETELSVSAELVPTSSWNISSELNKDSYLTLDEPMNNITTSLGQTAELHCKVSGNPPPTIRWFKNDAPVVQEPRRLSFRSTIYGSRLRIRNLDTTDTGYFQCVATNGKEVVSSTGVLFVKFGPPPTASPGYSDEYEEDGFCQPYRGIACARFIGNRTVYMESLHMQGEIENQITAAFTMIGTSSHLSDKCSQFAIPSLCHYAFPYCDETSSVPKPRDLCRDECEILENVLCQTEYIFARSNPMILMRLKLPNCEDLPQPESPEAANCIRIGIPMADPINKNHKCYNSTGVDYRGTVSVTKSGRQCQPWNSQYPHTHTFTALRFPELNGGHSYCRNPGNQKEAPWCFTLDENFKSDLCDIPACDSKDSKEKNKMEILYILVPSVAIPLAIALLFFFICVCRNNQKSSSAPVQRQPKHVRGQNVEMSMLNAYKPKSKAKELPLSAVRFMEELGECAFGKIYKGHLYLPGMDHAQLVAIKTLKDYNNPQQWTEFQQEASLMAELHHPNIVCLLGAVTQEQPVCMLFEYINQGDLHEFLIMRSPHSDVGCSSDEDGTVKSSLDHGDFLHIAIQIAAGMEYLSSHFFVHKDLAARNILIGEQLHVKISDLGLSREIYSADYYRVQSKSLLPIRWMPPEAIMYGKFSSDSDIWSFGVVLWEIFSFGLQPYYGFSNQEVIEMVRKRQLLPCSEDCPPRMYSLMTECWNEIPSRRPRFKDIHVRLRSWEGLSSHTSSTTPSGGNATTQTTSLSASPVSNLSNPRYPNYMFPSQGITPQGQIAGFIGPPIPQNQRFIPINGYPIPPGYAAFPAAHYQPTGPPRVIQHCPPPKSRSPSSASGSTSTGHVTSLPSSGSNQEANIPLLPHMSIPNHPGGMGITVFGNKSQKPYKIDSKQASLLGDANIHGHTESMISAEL
Experimental: as §2
For B7, the EC50 was 1.32 µg/mL and the “MAX(MFI)” value was 791000 MFI.
B8 was tested, and the EC50 was 6.79 µg/mL and the “MAX(MFI)” value was 408000 MFI.
B9 was tested, and the EC50 was 0.93 µg/mL and the “MAX(MFI)” value was 875000 MFI.

The binders below were run against T1, cynomolgus ROR1 on CHO-K1-cynoROR1 cells (assay: flow cytometry, CHO-K1-cynoROR1 cells).
Experimental: as §1, §2
B1 showed a Max of 34800.
Binder B2 has a Max of 34500.
B3 gave a Max of 34100.
Binder B4 has a Max of 32700.
In the case of B10, the Max is reported as 24600.
With B11 the Max was 28000.
In the case of B5, the Max is reported as 31100.
For B6, the Max was 32900.
With B12 the Max was 26600.
B13 was tested, and the Max was 14400.

What follows are binders tested against T3, human ROR1 on cells (HEK293T-hROR1, …) (assay: flow cytometry, HEK293T-hROR1 cells).
Experimental: as §2
In the case of B7, the EC50 is reported as 0.267 µg/mL and the “MAX(MFI)” value is reported as 1.49e+07 MFI.
For B8, the EC50 was 0.191 µg/mL and the “MAX(MFI)” value was 1.53e+07 MFI.
B9 was tested, and the EC50 was 0.158 µg/mL and the “MAX(MFI)” value was 1.35e+07 MFI.

These binders were tested against T3, human ROR1 on cells (HEK293T-hROR1, …) (assay: flow cytometry, PANC-1 cells).
Experimental: as §2
In the case of B1, the Max is reported as 16200.
Binder B2 has a Max of 16700.
For B7, the EC50 was 1.07 µg/mL and the “MAX(MFI)” value was 552000 MFI.
For B3, the Max was 18300.
In the case of B4, the Max is reported as 16400.
With B10 the Max was 9710.
Work on B11 yielded a Max of 10200.
B5 showed a Max of 14700.
B6 gave a Max of 16500.
B8 was tested, and the EC50 was 11.3 µg/mL and the “MAX(MFI)” value was 462000 MFI.
For B9, the EC50 was 0.654 µg/mL and the “MAX(MFI)” value was 653000 MFI.
Work on B12 yielded a Max of 10200.
In the case of B13, the Max is reported as 4250.

These binders were tested against T3, human ROR1 on cells (HEK293T-hROR1, …) (assay: flow cytometry on PANC-1 cells, MFI (APC-A Median)).
Experimental: as §1, §2
For B1, the “EC50 (read off the curve)” value was about 2 nM.
B2 was tested, and the “EC50 (read off the curve)” value was about 4 nM.
In the case of B3, the “EC50 (read off the curve)” value is reported as about 2 nM.
B4 was tested, and the “EC50 (read off the curve)” value was about 8 nM.
For B5, the “EC50 (read off the curve)” value was about 20 nM.
For B6, the “EC50 (read off the curve)” value was about 2 nM.

Molecular target: T1, cynomolgus ROR1 on CHO-K1-cynoROR1 cells
Assay: flow cytometry, CHO-K1-cynoROR1 cells
Remark: another data set of the same source
Experimental: as §2
In the case of B7, the EC50 is reported as 0.804 µg/mL and the “MAX(MFI)” value is reported as 1.1e+07 MFI.
For B8, the EC50 was 1.43 µg/mL and the “MAX(MFI)” value was 6.85e+06 MFI.
With B9 the EC50 was 0.474 µg/mL and the “MAX(MFI)” value was 1.04e+07 MFI.

These binders were tested against T4, hu-ROR2-ECD-his (Acrobiosystems RO2-H52E5) (human, UniProt Q01974 34-403) (assay: ELISA, plate coated with hu-ROR2-his at 1 µg/mL).
T4 construct: extracellular domain; bought protein; also called Human ROR2 his-tagged protein; Human ROR2, His Tag
T4 sequence (Q01974 34-403): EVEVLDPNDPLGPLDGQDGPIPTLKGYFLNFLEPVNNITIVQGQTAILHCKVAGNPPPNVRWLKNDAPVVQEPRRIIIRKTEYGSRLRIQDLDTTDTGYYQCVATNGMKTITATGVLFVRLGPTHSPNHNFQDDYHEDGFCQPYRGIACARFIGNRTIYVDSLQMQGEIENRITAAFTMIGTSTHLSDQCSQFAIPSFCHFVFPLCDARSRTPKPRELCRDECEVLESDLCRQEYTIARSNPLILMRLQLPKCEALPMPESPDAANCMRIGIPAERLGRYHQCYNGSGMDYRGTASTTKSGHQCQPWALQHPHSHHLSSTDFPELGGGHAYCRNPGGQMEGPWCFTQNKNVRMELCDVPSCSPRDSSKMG
Experimental: 1 μg/mL hu-ROR2-ECD-his (Acrobiocystems, RO2-H52E5) was added to the 96-well plate, 100 μL each well, incubated at 4° C. overnight, washing the plates with 1×PBST 3 times, 300 ul/well, blocking the plates with 2% BSA in 1×PBST, 200 ul/well at 37° C. for 1 hour, anti-ROR1 antibodies were serially diluted in staining buffer (PBS containing 2% BSA). Antibody solution was added to the plate and incubates at 37° C. for 1 hour, washing the plates with 1×PBST 3 times, 300 ul/well, adding secondary antibody 100 ul/well and incubate at 37° C. for 1 hour, washing the plates with 1×PBST 3 times, 300 ul/well and then add 100 ul/well TMB for about 5 min, stop the reaction by adding 100 ul/well 2M H₂SO₄, read the plates with Molecular device spectra max plus384 at 450 nm and 570 nm.
B7: no binding (tested: about 15 µg/ml).
B8: no binding (tested: about 15 µg/ml).
B9: no binding (tested: about 15 µg/ml).

Molecular target: T3, human ROR1 on cells (HEK293T-hROR1, …)
Assay: flow cytometry, PANC-1 cells
Remark: another data set of the same source
Experimental: as §2
Binding activity of the variants to PANC-1 cells were tested using the same method described in example 5.1. The results were shown in FIGS. 7-8 and Table 11 and Table 12.
With B14 the TOP was 86600.

These binders were tested against T2, Human ROR1-ECD-his (Acro Biosystems …) (assay: ELISA, coated hu-ROR1-ECD-his).
Experimental: Binding of recombinant anti-ROR1 antibodies to hu-ROR1-ECD-his was tested by ELISA. In brief, 1 μg/mL hu-ROR1-ECD-his was added to the 96-well plate, 100 μL each well, incubated at 4° C. overnight, washing the plates with 1×PBST 3 times, 300 ul/well, blocking the plates with 2% BSA in 1×PBST, 200 ul/well at 37° C. for 1 hour, anti-ROR1 antibodies were serially diluted in staining buffer (PBS containing 2% BSA). Antibody solution was added to the plate and incubates at 37° C. for 1 hour, washing the plates with 1×PBST 3 times, 300 ul/well, adding secondary antibody 100 ul/well and incubate at 37° C. for 1 hour, washing the plates with 1×PBST 3 times, 300 ul/well and then add 100 ul/well TMB for about 5 min, stop the reaction by adding 100 ul/well 2M H₂SO₄, read the plates with Molecular device spectra max plus384 at 450 nm and 570 nm.
B7 showed an EC50 of 0.002 µg/mL.
For B8, the EC50 was 0.006 µg/mL.
B9 gave an EC50 of 0.002 µg/mL.
